Results on four molecules are retold here after patent JP2020148511A (dated 2020).

For test [1], the target named is H1N1インフルエンザウィルスA型(A/Puerto Rico/8/34/Mount Sinai)由来のリコンビナント核内タンパク質 (Influenza A virus H1N1 (A/Puerto …, UniProt P03466 1-498)). Nature of the test: phage ELISA, NP coated at 2 ug/mL, anti-M13 detection, A450. On the technique in general: ELISA stands for enzyme-linked immunosorbent assay.
For test [2], the target named is A型インフルエンザウィルス亜型H1N1(A/Puerto Rico/8/1934)の核内タンパク質(NP抗原) (Influenza A virus H1N1 (A/Puerto …, UniProt P03466 1-498)). Nature of the test: sandwich ELISA, […] (capture) […].

B1: 抗体A3 (VHH antibody having the amino acid sequence of SEQ ID NO: 3) (VHH)
VHH: EVQLVESGGGLVQPGGSLSLSCAASGFTFSNYYMGWFRQAPGKERQSLATVNSGGTGEAYADSIRGRFTISRDNAKNTVTLQMSSLQPEDTAVYYCARVDGRVLSTIVVSYDYWGQGTQVTVSS
Turning to B1, the binding result in test [1] and in test [2] was “binds” each time.

B2: 抗体A2 (VHH antibody having the amino acid sequence of SEQ ID NO: 2) (VHH)
VHH: QVQLVESGGGLVQTGGPLRLSCAVSDRTDSNYAMGWFRQAPGKEREFVAAISGTGYVTGYADSARNRFTLSRDNGKNAVYLQMNSLEPADTAVYYCAATSDQRYPGPRSSGYDYWGQGTQVTVSS
Take B2: the binding result in test [2] was “binds”.

B3: 抗体A4 (VHH antibody having the amino acid sequence of SEQ ID NO: 4) (VHH)
VHH: EVQLVESGGGLVQAGDSLRLSCAASGRTFINLDMGWFRQPPGKEREYVAAITRNGAITSYADSAKGRFTISRDNAKNTVSLEMNSLKPEDTGVYYCAAYSISNYGSGWYKPDYWGQGAQVTVSS
Consider B3, for which, in test [2], the binding result was “binds”.

B4: 抗体A1 (VHH antibody having the amino acid sequence of SEQ ID NO: 1) (VHH)
VHH: QLQLVESGGGLVQAGGSLRLSCAASGSAFSLYAMGWHRQAPGKQRELVAYITNGDITNYADSVQGRVIISRDNAKNTVYLHMNSLKPEDTAVYYCYAVGGRTFWGQGTQVTVSS
As for B4, in test [2], the binding result is reported as “binds”.
